# Laboratory results as given in patent US20090111753A1, “Nogo-A Polypeptide Fragments, Variant Nogo Receptor-1 Polypeptides, and Uses Thereof” (Yale University, priority 2004, published 2009).
# T1: AP-Nogo-66 (UniProt Q9NQC3 1055-1120)
# T1 construct: domain: Nogo-66; construct described elsewhere (Fournier 2001); also called AP-Ng66; Ng66; not shown: alkaline phosphatase (AP); construct described elsewhere
# T1 sequence (looked up): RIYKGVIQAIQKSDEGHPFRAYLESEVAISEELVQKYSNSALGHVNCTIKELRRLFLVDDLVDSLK
# T2: AP fusion protein with the B4C fragment of Amino-Nogo-A fused directly to Nogo-66 (human, UniProt Q9NQC3 1055-1120)
# T2 construct: domain: Nogo-66; also called AP-B4C66; AP-B4C-66; not shown: alkaline phosphatase (AP), vector pcAP6
# T2 sequence: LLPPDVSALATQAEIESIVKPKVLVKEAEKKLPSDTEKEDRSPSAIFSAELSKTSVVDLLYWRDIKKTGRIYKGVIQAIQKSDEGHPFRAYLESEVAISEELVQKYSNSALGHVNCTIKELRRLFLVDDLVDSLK
# T3: AP-fused Amino-Nogo fragment B4C (a.a. 950-1018) (human, UniProt Q9NQC3 950-1018)
# T3 construct: also called AmNg B4C; AP-B4C; not shown: alkaline phosphatase (AP), vector pcAP6
# T3 sequence: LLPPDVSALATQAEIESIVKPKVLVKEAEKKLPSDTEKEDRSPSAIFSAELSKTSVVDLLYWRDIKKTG
# Experiments:
# AP-Nogo-66 = target: T1, AP-Nogo-66; assay: AP-ligand binding, COS-7
# [1] = target: T2, AP fusion protein with the B4C fragment …; assay: AP-ligand binding, COS-7
# [2] = target: T3, AP-fused Amino-Nogo fragment B4C (a.a. …); assay: AP-ligand binding, COS-7
# NgR ligands = assay: Binding of alanine substituted NgR mutants to NgR ligands, summary categories; conditions: AP-Nogo66, AP-B4C, AP-B4C66, AP-Lingo-1, AP-OMgp and AP-MAG; compared to wild type NgR
# Method in brief: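 Human NgR1 template; 74 mutants with 1-8 solvent-exposed charged surface residues (within 5 Å) Ala-substituted, plus glycosylation-site mutants and D259N polymorphism. Mutants tested for binding of AP-tagged Nogo66, Amino-Nogo-B4C, B4C66, MAG, OMgp and Lingo-1; each classed as losing all, keeping all, or selective ligand binding.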
Molecule,binding result (AP-Nogo-66),binding result [1],binding result [2],ligand binding category of NgR mutant (Table II) (NgR ligands)
"human NgR1 alanine mutant 117, 119, 120, 139 (receptor) CPGACVCYNEPKVTTSCPQQGLQAVPVGIPAASQRIFLHGNRISHVPAASFRACRNLTILWLHSNVLARIDAAAFTGLALLEQLDLSDNAALAAVDPATFHGLGRLHTLHLDACGLQELGPGLFRGLAALQYLYLQDNALQALPDDTFRDLGNLTHLFLHGNRISSVPERAFRGLHSLDRLLLHQNRVAHVHPHAFRDLGRLMTLYLFANNLSALPTEALAPLRALQYLRLNDNPWVCDCRARPLWAWLQKFRGSSSEVPCSLPQRLAGRDLKRLAANDLQGCAVATGPYHPIWTGRATDEEPLGLPKCCQPDAADKASVLEPGRPASAGNALKGRVPPGDSPPGNGSGPRHINDSPFGTLPGSAEPPLTAVRPEGSEPPGFPTSGPRRRPGCSRKNRTRSHCRLGQAGSGGGGTGDSEGSGALPSLTCSLTPLGLALVLWTVLGPC",no binding,no binding,no binding,No binding
"human NgR1 alanine mutant 202, 205, 227, 250, 277, 279 (receptor) CPGACVCYNEPKVTTSCPQQGLQAVPVGIPAASQRIFLHGNRISHVPAASFRACRNLTILWLHSNVLARIDAAAFTGLALLEQLDLSDNAQLRSVDPATFHGLGRLHTLHLDRCGLQELGPGLFRGLAALQYLYLQDNALQALPDDTFRDLGNLTHLFLHGNRISSVPERAFRGLASLARLLLHQNRVAHVHPHAFRDLGALMTLYLFANNLSALPTEALAPLAALQYLRLNDNPWVCDCRARPLWAWLQAFAGSSSEVPCSLPQRLAGRDLKRLAANDLQGCAVATGPYHPIWTGRATDEEPLGLPKCCQPDAADKASVLEPGRPASAGNALKGRVPPGDSPPGNGSGPRHINDSPFGTLPGSAEPPLTAVRPEGSEPPGFPTSGPRRRPGCSRKNRTRSHCRLGQAGSGGGGTGDSEGSGALPSLTCSLTPLGLALVLWTVLGPC",no binding,no binding,no binding,No binding
"human NgR1 alanine mutant 95, 97, 188, 189, 191, 192 (receptor) CPGACVCYNEPKVTTSCPQQGLQAVPVGIPAASQRIFLHGNRISHVPAASFRACRNLTILWLHSNVLAAIAAAAFTGLALLEQLDLSDNAQLRSVDPATFHGLGRLHTLHLDRCGLQELGPGLFRGLAALQYLYLQDNALQALPDDTFRDLGNLTHLFLHGAAIAAVPERAFRGLHSLDRLLLHQNRVAHVHPHAFRDLGRLMTLYLFANNLSALPTEALAPLRALQYLRLNDNPWVCDCRARPLWAWLQKFRGSSSEVPCSLPQRLAGRDLKRLAANDLQGCAVATGPYHPIWTGRATDEEPLGLPKCCQPDAADKASVLEPGRPASAGNALKGRVPPGDSPPGNGSGPRHINDSPFGTLPGSAEPPLTAVRPEGSEPPGFPTSGPRRRPGCSRKNRTRSHCRLGQAGSGGGGTGDSEGSGALPSLTCSLTPLGLALVLWTVLGPC",no binding,no binding,no binding,No binding
"human NgR1 alanine mutant 95, 97, 117, 119, 120, 188, 189 (receptor) CPGACVCYNEPKVTTSCPQQGLQAVPVGIPAASQRIFLHGNRISHVPAASFRACRNLTILWLHSNVLAAIAAAAFTGLALLEQLDLSDNAALAAVDPATFHGLGRLHTLHLDRCGLQELGPGLFRGLAALQYLYLQDNALQALPDDTFRDLGNLTHLFLHGAAISSVPERAFRGLHSLDRLLLHQNRVAHVHPHAFRDLGRLMTLYLFANNLSALPTEALAPLRALQYLRLNDNPWVCDCRARPLWAWLQKFRGSSSEVPCSLPQRLAGRDLKRLAANDLQGCAVATGPYHPIWTGRATDEEPLGLPKCCQPDAADKASVLEPGRPASAGNALKGRVPPGDSPPGNGSGPRHINDSPFGTLPGSAEPPLTAVRPEGSEPPGFPTSGPRRRPGCSRKNRTRSHCRLGQAGSGGGGTGDSEGSGALPSLTCSLTPLGLALVLWTVLGPC",no binding,no binding,no binding,No binding
"human NgR1 alanine mutant 67, 68, 71 (receptor) CPGACVCYNEPKVTTSCPQQGLQAVPVGIPAASQRIFLHGAAISAVPAASFRACRNLTILWLHSNVLARIDAAAFTGLALLEQLDLSDNAQLRSVDPATFHGLGRLHTLHLDRCGLQELGPGLFRGLAALQYLYLQDNALQALPDDTFRDLGNLTHLFLHGNRISSVPERAFRGLHSLDRLLLHQNRVAHVHPHAFRDLGRLMTLYLFANNLSALPTEALAPLRALQYLRLNDNPWVCDCRARPLWAWLQKFRGSSSEVPCSLPQRLAGRDLKRLAANDLQGCAVATGPYHPIWTGRATDEEPLGLPKCCQPDAADKASVLEPGRPASAGNALKGRVPPGDSPPGNGSGPRHINDSPFGTLPGSAEPPLTAVRPEGSEPPGFPTSGPRRRPGCSRKNRTRSHCRLGQAGSGGGGTGDSEGSGALPSLTCSLTPLGLALVLWTVLGPC",no binding,no binding,no binding,No binding
"human NgR1 alanine mutant 111, 113, 114 (receptor) CPGACVCYNEPKVTTSCPQQGLQAVPVGIPAASQRIFLHGNRISHVPAASFRACRNLTILWLHSNVLARIDAAAFTGLALLEQLALAANAQLRSVDPATFHGLGRLHTLHLDRCGLQELGPGLFRGLAALQYLYLQDNALQALPDDTFRDLGNLTHLFLHGNRISSVPERAFRGLHSLDRLLLHQNRVAHVHPHAFRDLGRLMTLYLFANNLSALPTEALAPLRALQYLRLNDNPWVCDCRARPLWAWLQKFRGSSSEVPCSLPQRLAGRDLKRLAANDLQGCAVATGPYHPIWTGRATDEEPLGLPKCCQPDAADKASVLEPGRPASAGNALKGRVPPGDSPPGNGSGPRHINDSPFGTLPGSAEPPLTAVRPEGSEPPGFPTSGPRRRPGCSRKNRTRSHCRLGQAGSGGGGTGDSEGSGALPSLTCSLTPLGLALVLWTVLGPC",no binding,no binding,no binding,No binding
"human NgR1 alanine mutant 114, 117, 163 (receptor) CPGACVCYNEPKVTTSCPQQGLQAVPVGIPAASQRIFLHGNRISHVPAASFRACRNLTILWLHSNVLARIDAAAFTGLALLEQLDLSANAALRSVDPATFHGLGRLHTLHLDRCGLQELGPGLFRGLAALQYLYLQANALQALPDDTFRDLGNLTHLFLHGNRISSVPERAFRGLHSLDRLLLHQNRVAHVHPHAFRDLGRLMTLYLFANNLSALPTEALAPLRALQYLRLNDNPWVCDCRARPLWAWLQKFRGSSSEVPCSLPQRLAGRDLKRLAANDLQGCAVATGPYHPIWTGRATDEEPLGLPKCCQPDAADKASVLEPGRPASAGNALKGRVPPGDSPPGNGSGPRHINDSPFGTLPGSAEPPLTAVRPEGSEPPGFPTSGPRRRPGCSRKNRTRSHCRLGQAGSGGGGTGDSEGSGALPSLTCSLTPLGLALVLWTVLGPC",no binding,no binding,no binding,No binding
"human NgR1 alanine mutant 182, 186, 210 (receptor) CPGACVCYNEPKVTTSCPQQGLQAVPVGIPAASQRIFLHGNRISHVPAASFRACRNLTILWLHSNVLARIDAAAFTGLALLEQLDLSDNAQLRSVDPATFHGLGRLHTLHLDRCGLQELGPGLFRGLAALQYLYLQDNALQALPDDTFRDLGNLTALFLAGNRISSVPERAFRGLHSLDRLLLAQNRVAHVHPHAFRDLGRLMTLYLFANNLSALPTEALAPLRALQYLRLNDNPWVCDCRARPLWAWLQKFRGSSSEVPCSLPQRLAGRDLKRLAANDLQGCAVATGPYHPIWTGRATDEEPLGLPKCCQPDAADKASVLEPGRPASAGNALKGRVPPGDSPPGNGSGPRHINDSPFGTLPGSAEPPLTAVRPEGSEPPGFPTSGPRRRPGCSRKNRTRSHCRLGQAGSGGGGTGDSEGSGALPSLTCSLTPLGLALVLWTVLGPC",no binding,no binding,no binding,No binding
"human NgR1 alanine mutant 210, 232, 234 (receptor) CPGACVCYNEPKVTTSCPQQGLQAVPVGIPAASQRIFLHGNRISHVPAASFRACRNLTILWLHSNVLARIDAAAFTGLALLEQLDLSDNAQLRSVDPATFHGLGRLHTLHLDRCGLQELGPGLFRGLAALQYLYLQDNALQALPDDTFRDLGNLTHLFLHGNRISSVPERAFRGLHSLDRLLLAQNRVAHVHPHAFRDLGRLMTLALAANNLSALPTEALAPLRALQYLRLNDNPWVCDCRARPLWAWLQKFRGSSSEVPCSLPQRLAGRDLKRLAANDLQGCAVATGPYHPIWTGRATDEEPLGLPKCCQPDAADKASVLEPGRPASAGNALKGRVPPGDSPPGNGSGPRHINDSPFGTLPGSAEPPLTAVRPEGSEPPGFPTSGPRRRPGCSRKNRTRSHCRLGQAGSGGGGTGDSEGSGALPSLTCSLTPLGLALVLWTVLGPC",no binding,no binding,no binding,No binding
